Test results: patent US20250197467A1 (BRIGHT PEAK THERAPEUTICS, published 2025)
Numbering of substitutions follows the chain as printed.

T1: IL-18 receptor (IL-18Rαβ) on cells (UniProt Q13478 19-541; O95256 20-599, limits assumed)
T1 sequence (looked up) 1: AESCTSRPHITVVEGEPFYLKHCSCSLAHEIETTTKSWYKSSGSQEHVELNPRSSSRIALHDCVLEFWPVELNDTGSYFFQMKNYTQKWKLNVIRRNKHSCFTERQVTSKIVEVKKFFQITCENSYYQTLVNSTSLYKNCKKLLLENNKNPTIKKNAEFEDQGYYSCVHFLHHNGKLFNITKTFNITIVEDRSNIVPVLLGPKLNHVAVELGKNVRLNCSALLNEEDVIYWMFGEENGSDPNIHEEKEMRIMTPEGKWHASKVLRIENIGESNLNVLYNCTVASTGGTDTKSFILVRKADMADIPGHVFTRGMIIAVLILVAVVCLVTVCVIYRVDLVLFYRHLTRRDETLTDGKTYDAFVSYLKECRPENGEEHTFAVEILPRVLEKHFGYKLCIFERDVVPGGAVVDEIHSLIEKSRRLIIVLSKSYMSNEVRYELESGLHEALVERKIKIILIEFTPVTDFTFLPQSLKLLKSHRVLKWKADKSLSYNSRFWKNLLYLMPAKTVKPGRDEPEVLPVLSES
T1 sequence (looked up) 2: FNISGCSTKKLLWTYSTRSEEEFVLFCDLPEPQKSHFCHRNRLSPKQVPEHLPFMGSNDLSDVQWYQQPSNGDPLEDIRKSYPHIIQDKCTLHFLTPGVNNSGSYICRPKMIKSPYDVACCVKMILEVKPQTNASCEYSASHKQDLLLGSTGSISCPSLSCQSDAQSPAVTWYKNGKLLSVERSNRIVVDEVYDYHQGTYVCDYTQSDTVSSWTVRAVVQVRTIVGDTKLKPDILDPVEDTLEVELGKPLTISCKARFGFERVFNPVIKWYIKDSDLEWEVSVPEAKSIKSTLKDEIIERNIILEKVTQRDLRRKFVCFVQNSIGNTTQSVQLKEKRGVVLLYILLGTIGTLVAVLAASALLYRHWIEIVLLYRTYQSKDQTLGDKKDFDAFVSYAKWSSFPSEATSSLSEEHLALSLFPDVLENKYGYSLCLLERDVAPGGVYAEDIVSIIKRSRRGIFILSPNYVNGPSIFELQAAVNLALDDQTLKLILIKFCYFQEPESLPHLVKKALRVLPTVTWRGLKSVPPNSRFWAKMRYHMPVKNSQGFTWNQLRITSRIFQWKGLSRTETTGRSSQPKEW

B1: C191 (ligand)
chain: YFGKLKSKLSIIRNLNDQVLFIDQGNRPLFEDMTDSDARDNAPRTIFIISMYADSQPRGMAVAISVKCEKISTLSAENKIISFKEMNPPDNIKDTKSDIIFFQRSVPGHDNKMQFESSSYEGYFLAAEKERDLFKLILKKEDELGDRSIMFTVQNESGGPLGLAGGSNIVPVLLGPKLNHVAVELGKNVRLNCSALLNEEDVIYWMFGEENGSDPNIHEEKEMRIMTPEGKWHASKVLRIENIGESNLNVLYNCTVASTGGTDTKSFILVRKADHHHHHH
B2: C187 (ligand)
chain: MAAEPVEDNCINFVAMKFIDNTLYFIAEDDENLESDPLGLAGYFGKLKSKLSIIRNLNDQVLFIDQGNRPLFEDMTDSDARDNAPRTIFIISMYADSQPRGMAVAISVKCEKISTLSAENKIISFKEMNPPDNIKDTKSDIIFFQRSVPGHDNKMQFESSSYEGYFLAAEKERDLFKLILKKEDELGDRSIMFTVQNED
B3: C136 (ligand)
chain: YFGKLKSKLSIIRNLNDQVLFIDQGNRPLFEDMTDSDARDNAPRTIFIISMYADSQPRGMAVAISVKCEKISTLSAENKIISFKEMNPPDNIKDTKSDIIFFQRSVPGHDNKMQFESSSYEGYFLAAEKERDLFKLILKKEDELGDRSIMFTVQNEGGSGGSNIVPVLLGPKLNHVAVELGKNVRLNCSALLNEEDVIYWMFGEENGSDPNIHEEKEMRIMTPEGKWHASKVLRIENIGESNLNVLYNCTVASTGGTDTKSFILVRKADHHHHHH
B4: C314 (ligand)
chain: MAAEPVEDNAINFVAMKFIDNTLYFIAEDDENLESDPLGYFGKLKSKLSIIRNLNDQVLFIDQGNRPLFEDMTDSDARDNAPRTIFIISMYADSQPRGMAVAISVKCEKISTLSAENKIISFKEMNPPDNIKDTKSDIIFFQRSVPGHDNKMQFESSSYEGYFLAAEKERDLFKLILKKEDELGDRSIMFTVQNED
B5: C315 (ligand)
chain: B4 chain with A10S
B6: C173 (ligand)
chain: YFGKLKSKLSIIRNLNDQVLFIDQGNRPLFEDMTDSDARDNAPRTIFIISMYADSQPRGMAVAISVKCEKISTLSAENKIISFKEMNPPDNIKDTKSDIIFFQRSVPGHDNKMQFESSSYEGYFLAAEKERDLFKLILKKEDELGDRSIMFTVQNEPLGLAGSNIVPVLLGPKLNHVAVELGKNVRLNCSALLNEEDVIYWMFGEENGSDPNIHEEKEMRIMTPEGKWHASKVLRIENIGESNLNVLYNCTVASTGGTDTKSFILVRKADHHHHHH
B7: C172 (ligand)
chain: YFGKLKSKLSIIRNLNDQVLFIDQGNRPLFEDMTDSDARDNAPRTIFIISMYADSQPRGMAVAISVKCEKISTLSAENKIISFKEMNPPDNIKDTKSDIIFFQRSVPGHDNKMQFESSSYEGYFLAAEKERDLFKLILKKEDELGDRSIMFTVQNESGGPGPAGMKGLPGSNIVPVLLGPKLNHVAVELGKNVRLNCSALLNEEDVIYWMFGEENGSDPNIHEEKEMRIMTPEGKWHASKVLRIENIGESNLNVLYNCTVASTGGTDTKSFILVRKADHHHHHH
B8: C189 (ligand)
chain: B7 chain with N196D, N215D, N257D
B9: C326 + MMP9 (ligand)
chain: LAGSGYFGKLKSKLSIIRNLNDQVLFIDQGNRPLFEDMTDSDARDNAPRTIFIISMYADSQPRGMAVAISVKCEKISTLSAENKIISFKEMNPPDNIKDTKSDIIFFQRSVPGHDNKMQFESSSYEGYFLAAEKERDLFKLILKKEDELGDRSIMFTVQNED

Target: T1, IL-18 receptor (IL-18Rαβ) on cells
Experiment: cell-based or functional assay

Row | Hek Blue reporter assay EC50 | Binder
1 | 0.00202 nM | B1
2 | 1.24 nM | B2
3 | 0.000884 nM | B3
4 | 4 nM | B4
5 | 3.36 nM | B5
6 | 0.00013 nM | B6
7 | 0.00109 nM | B7
8 | 0.00043 nM | B8

Target: T1, IL-18 receptor (IL-18Rαβ) on cells
Experiment: cell-based or functional assay
Remark: another data set of the same source

Row | IFNγ release NK-92 assay EC50 | Binder
9 | 0.0514 nM | B9
10 | 255 nM | B4
11 | 252 nM | B5

Target: T1, IL-18 receptor (IL-18Rαβ) on cells
Experiment: cell-based or functional assay
Remark: another data set of the same source

Row | Fold potency loss vs C086 | HEK-blue EC50 | Binder
12 | 48 fold | 2.02 nM | B1
13 | 29400 fold | 1240 nM | B2
14 | 21 fold | 0.884 nM | B3
15 | 26 fold | 1.09 nM | B7
16 | 10 fold | 0.43 nM | B8
